# Reference: IntAct's records for PubMed 26297806
# B1: Progesterone-induced-blocking factor 1 (Homo sapiens), Q8WXW3 (parent)
# chain: MSRKISKESKKVNISSSLESEDISLETTVPTDDISSSEEREGKVRITRQLIERKELLHNIQLLKIELSQKTMMIDNLKVDYLTKIEELEEKLNDALHQKQLLTLRLDNQLAFQQKDASKYQELMKQEMETILLRQKQLEETNLQLREKAGDVRRNLRDFELTEEQYIKLKAFPEDQLSIPEYVSVRFYELVNPLRKEICELQVKKNILAEELSTNKNQLKQLTETYEEDRKNYSEVQIRCQRLALELADTKQLIQQGDYRQENYDKVKSERDALEQEVIELRRKHEILEASHMIQTKERSELSKEVVTLEQTVTLLQKDKEYLNRQNMELSVRCAHEEDRLERLQAQLEESKKAREEMYEKYVASRDHYKTEYENKLHDELEQIRLKTNQEIDQLRNASREMYERENRNLREARDNAVAEKERAVMAEKDALEKHDQLLDRYRELQLSTESKVTEFLHQSKLKSFESERVQLLQEETARNLTQCQLECEKYQKKLEVLTKEFYSLQASSEKRITELQAQNSEHQARLDIYEKLEKELDEIIMQTAEIENEDEAERVLFSYGYGANVPTTAKRRLKQSVHLARRVLQLEKQNSLILKDLEHRKDQVTQLSQELDRANSLLNQTQQPYRYLIESVRQRDSKIDSLTESIAQLEKDVSNLNKEKSALLQTKNQMALDLEQLLNHREELAAMKQILVKMHSKHSENSLLLTKTEPKHVTENQKSKTLNVPKEHEDNIFTPKPTLFTKKEAPEWSKKQKMKT
# partner: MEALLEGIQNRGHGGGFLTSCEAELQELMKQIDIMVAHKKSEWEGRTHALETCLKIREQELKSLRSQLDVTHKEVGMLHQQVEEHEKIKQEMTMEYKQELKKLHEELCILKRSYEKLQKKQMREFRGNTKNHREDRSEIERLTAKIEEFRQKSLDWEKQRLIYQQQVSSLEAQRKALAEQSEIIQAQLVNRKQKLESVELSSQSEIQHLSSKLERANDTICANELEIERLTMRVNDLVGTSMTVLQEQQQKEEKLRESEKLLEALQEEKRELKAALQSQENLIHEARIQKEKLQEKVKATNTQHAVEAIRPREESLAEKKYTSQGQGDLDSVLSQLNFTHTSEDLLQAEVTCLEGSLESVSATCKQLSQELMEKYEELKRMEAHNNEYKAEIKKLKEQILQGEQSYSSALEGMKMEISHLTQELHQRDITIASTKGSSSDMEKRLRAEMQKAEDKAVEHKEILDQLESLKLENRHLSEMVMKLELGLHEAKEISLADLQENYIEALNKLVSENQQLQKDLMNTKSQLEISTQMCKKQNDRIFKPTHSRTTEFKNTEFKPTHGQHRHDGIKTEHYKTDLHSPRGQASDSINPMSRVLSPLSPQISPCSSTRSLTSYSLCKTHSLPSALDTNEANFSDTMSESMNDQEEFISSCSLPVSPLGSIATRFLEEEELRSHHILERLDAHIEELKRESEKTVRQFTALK
# Variants of: B1
# Details: with cep63_human CEP63, Q96MT8
row,Variant,effect of a mutation on the interaction
1,E89Q,disrupting interaction strength
